Biological target: the molecule itself
Test: SEC; size exclusion chromatography of GOx as comparison to AfGDH; elution volume corresponding to the dimer; conditions not shown (Supplementary Figure S4)

B1: glucose oxidase (enzyme, UniProt P13006 17-605, looked up)
chain: LPHYIRSNGIEASLLTDPKDVSGRTVDYIIAGGGLTGLTTAARLTENPNISVLVIESGSYESDRGPIIEDLNAYGDIFGSSVDHAYETVELATNNQTALIRSGNGLGGSTLVNGGTWTRPHKAQVDSWETVFGNEGWNWDNVAAYSLQAERARAPNAKQIAAGHYFNASCHGVNGTVHAGPRDTGDDYSPIVKALMSAVEDRGVPTKKDFGCGDPHGVSMFPNTLHEDQVRSDAAREWLLPNYQRPNLQVLTGQYVGKVLLSQNGTTPRAVGVEFGTHKGNTHNVYAKHEVLLAAGSAVSPTILEYSGIGMKSILEPLGIDTVVDLPVGLNLQDQTTATVRSRITSAGAGQGQAAWFATFNETFGDYSEKAHELLNTKLEQWAEEAVARGGFHNTTALLIQYENYRDWIVNHNVAYSELFLDTAGVASFDVWDLLPFTRGYVHILDKDPYLHHFAYDPQYFLNELDLLGQAAATQLARNISNSGAMQTYFAGETIPGDNLAYDADLSAWTEYIPYHFRPNYHGVGTCSMMPKEMGGVVDNAARVYGVQGLRVIDGSIPPTQMSSHVMTVFYAMALKISDAILEDYASMQ
notes: glucose oxidase (GOx) used as the comparison in size exclusion chromatography; probably the glycosylated enzyme; also called GOx
stoichiometry N: 2
